This assay has as its target hamster ACE2 ectodomain with human IgG1 Fc tag (hamster). As to the kind of experiment: BLI. (In general: Biolayer interferometry detects binding as a change in optical thickness at a sensor tip.)

One substance from publication PMC8828469 can be followed below.

Where “and” joins values, the source holds several entries; their conditions need not be identical. Equal entries are not always repeated.

Usually kon stands for the rate constant with which the complex forms. On to “SARS-CoV-2 spike protein of Alpha (B.1.1.7), S^Alpha, recombinant trimeric ectodomain (from UniProt P0DTC2 14-1208) (domain or fragment)”, for which the kon is 111000 M⁻¹ s⁻¹ and 90700 M⁻¹ s⁻¹ and 98000 M⁻¹ s⁻¹.
